Columns and labels:
[1] = molecular target: GPCMV gB (glycoprotein B of guinea pig CMV strain V545/82) (guinea pig cytomegalovirus); test: cell-based or functional assay
[2] = molecular target: CMV gp116 epitope AD2 site peptide … (CMV (human cytomegalovirus)); test: kinetic affinity measurement, method not stated; antigen taken as CMV gp116 AD2 peptide
[3] = molecular target: CMV gp116 epitope AD2 site peptide … (CMV (human cytomegalovirus)); test: kinetic affinity measurement, method not stated; antigen taken as AD2 peptide; same value as r7, table re-sorted by koff

Question: ITC88 control antibody was tested. Which neutralization of GPCMV V545/82 entry into JH4 cells; highest concentration tested without effect [1] did it give?
Answer: > 300 ng/mL

Question: And the Kd [2]?
Answer: 1.51 nM

Question: And the koff [2]?
Answer: 0.00116 s⁻¹

Question: And the kon [2]?
Answer: 767000 M⁻¹ s⁻¹

Question: What about the Kd [3] of the same substance?
Answer: 1.51 nM

Question: And the koff [3]?
Answer: 0.00116 s⁻¹

Question: What about the kon [3] of the same substance?
Answer: 767000 M⁻¹ s⁻¹
